Laboratory results published in US20170029507A1 (IMAGINAB, published 2017).

Key:
[1] = biological target: T1, purified recombinant human CD8 protein (human, UniProt P01732 22-182, limits assumed); assay: ELISA, plate coated with rhCD8, transfection supernatant serially diluted from 0.5 µg/ml, HRP goat anti-human IgG (Fc-specific), TMB, 405 nm
T1 construct: also called rhCD8; hCD8
Procedure: (§1) The concentration of the variants UAb_Mb1b_CD8, and IAb_Mb1a_CD8 were normalized to […] the concentration of IAb_MB2a_CD8 (0.5 μg/ml) based on the quantitative ELISA.
(§2) 96 well plates were coated with rhCD8 antigen and incubated with supernatants obtained from the transient transfection. Binding was detected with HRP-conjugated goat anti-human (Fc-specific) IgG and TMB substrate. The absorbance measured at 405 nm. Dilutions were done in triplicate. Data is shown as mean of relative absorbance.

[2] = biological target: T1, purified recombinant human CD8 protein; assay: ELISA, plate coated with rhCD8, transfection supernatant at 0.5 µg/ml and serially diluted, HRP goat anti-human IgG (Fc-specific), TMB, 405 nm
Procedure: as §1, §2

T1 sequence (P01732 22-182 limits assumed): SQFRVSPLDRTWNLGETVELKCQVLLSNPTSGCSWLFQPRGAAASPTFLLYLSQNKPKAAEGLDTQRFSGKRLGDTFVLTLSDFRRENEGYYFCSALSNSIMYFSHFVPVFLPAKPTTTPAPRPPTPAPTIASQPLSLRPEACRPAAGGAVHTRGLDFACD

| EC50 (read off the curve) [1] | EC50 (read off the curve) [2] | Binder |
| --- | --- | --- |
| ~0.04 µg/mL | – | IAb_Mb2c_CD8 (other, Tested as CHO-K1 transfection supernatant; also called variant 2c) QVQLVQSGAEVKKPGATVKISCKVSGFNIKDTYIHFVQQAPGKGLEWIGRIDPANDNTLYASKFQGKATITADTSTDTAYMELSSLRSGDTAVYYCGRGYGYYVFDHWGQGTLVTVSSGSTSGGGSGGGSGGGGSSDVQITQSPSSLSASVGDRVTITCRTSRSISQYLAWYQQKPGKVPKLLIYSGSTLQSGVPSRFSGSGSGTDFTLTISSLQPEDVATYYCQQHNENPLTFGGGTKVEIKEPKSCDKTHTCPPCGGGSSGGGSGGQPREPQVYTLPPSRDELTKNQVSLTCLVKGFYPSDIAVEWESNGQPENNYKTTPPVLDSDGSFFLYSKLTVDKSRWQQGNVFSCSVMHEALHNHYTQKSLSLSPGK |
| – | ~0.02 µg/mL | IAb_Mb2a_CD8 (other, Tested as CHO-K1 transfection supernatant; also called variant 2a) EVQLVESGGGLVQPGGSLRLSCAASGFNIKDTYIHFVRQAPGKGLEWIGRIDPANDNTLYASKFQGKATISADTSKNTAYLQMNSLRAGDTAVYYCGRGYGYYVFDHWGQGTLVTVSSGSTSGGGSGGGSGGGGSSDVQITQSPSSLSASVGDRVTITCRTSRSISQYLAWYQQKPGKVPKLLIYSGSTLQSGVPSRFSGSGSGTDFTLTISSLQPEDVATYYCQQHNENPLTFGGGTKVEIKEPKSCDKTHTCPPCGGGSSGGGSGGQPREPQVYTLPPSRDELTKNQVSLTCLVKGFYPSDIAVEWESNGQPENNYKTTPPVLDSDGSFFLYSKLTVDKSRWQQGNVFSCSVMHEALHNHYTQKSLSLSPGK |
